Measured values taken from patent US11406709B2, “Therapeutic and research application of PDCL3” (TRUSTEES OF BOSTON UNIVERSITY, priority 2014, dated 2022).

How the values were obtained:
[1] = test system: PDCL3 with VEGFR-2; experiment: Brefeldin A treatment, co-immunoprecipitation of PDCL3 with VEGFR-2; assay type: cell-based; settings: HEK-293 cells
Method: FIG. 7A. Cells expressing VEGFR-2 alone or together were subjected cell surface biotinylation. Non-biotinylated and biotinylated fractions were immunoprecipitated with anti-VEGFR-2 antibody and blotted for PDCL3 using anti-c-Myc antibody. Non-biotinylated and biotinylated fractions also were blotted for VEGFR-2 and PARP as a control. FIG. 7B. HEK-293 cells were co-transfected with Myc-tagged PDCL3 and VEGFR-2 and after 48 hours they were treated with BFA or control vehicle. Cells were lysed and whole cell lysates were either blotted for VEGFR-2 or were subjected co-immunoprecipitation using anti-c-Myc antibody followed by immunoblotting with anti-VEGFR-2. FIG. 7C. HEK-293 cells were co-transfected with Myc-tagged PDCL3 and VEGFR-2 and after 48 hours cells were fixed and subjected to IF staining as described in Materials and Method section. Cells were stained with anti-PDCL3, anti-c-myc antibodies (FIGS. 7C-7D) or endoplasmic reticulum specific dye FIG. 7E.

[2] = test system: PDCL3 and VEGFR-2; experiment: Chemical hypoxia, expression of PDCL3 and VEGFR-2; assay type: cell-based
Text: To test whether, increased expression of VEGFR-2 in response to hypoxia is linked to induction of PDCL3 expression, we silenced expression of PDCL3 by siRNA and analyzed measured VEGFR-2 levels.

[3] = test system: zebrafish embryos; experiment: Zebrafish angiogenesis assay; assay type: in vivo, zebrafish (Danio rerio); settings: microinjection into embryos, 28 hpf
Method: The vectors were linearized with Not I restriction enzyme, treated with Proteinase K (SIGMA) and extracted with phenol. Linearized plasmid DNA (1 μg/μl) in RNAse-free water was used for in vitro capped mRNA synthesis using the MMESSAGE MMACHINE® SP6 kit (AMBION) according to manufacturer instructions and RNA subsequently was used to inject into zebrafish embryos.
Fli-eGFP-transgenic adult male and female zebrafish (Danio rerio) were housed in […] light-dark cycle at a temperature of (26.5° C.) and a pH of (7.0-7.4) in a controlled multi-tank recirculating water system (Aquatic Habitats, Apopka, Fla.). Fish were fed twice daily with live brine shrimp (Brine Shrimp Direct, Ogden, Utah) and flake food (TetraMin; Tetra, Blacksburg, Va.). A glass capillary needle attached to a Femtojet injector (EPPENDORF) was used for injecting RNA (10 or 5 ng/μl in approximately 10 pl) into 1- or 2-cell-stage embryos. The embryos were grown at 28° C. for 3 days. The embryos were examined after 28 or 50 hpf using Zeiss immunofluorescence microscope. The images of fish under same setting were obtained for 10 fish per group at every experiment and analyzed for the length of the tail vessels using IMAGE-PRO® software and for the tail vessel plexus fluorescent intensity using Image J software.

[4] = test system: PAE cells; experiment: Capillary tube formation on matrigel; assay type: cell-based, porcine; settings: over-expression with VEGFR-2 in endothelial cells, 12 hours
Method: (§1) FIG. 6A. Cell lysates from HEK-293 cells co-expressing PDCL3 with VEGFR-2 or HA-PDCL3 with VEGFR-2 were immunoprecipitated with VEGFR-2 and immunoblotted for PDCL3 using anti-Myc antibody. Whole cell lysates was also blotted for VEGFR-2, PDCL3 and HSp70 as a loading control. Ubiquitination of VEGFR-2 was determined by immunoprecipitation with anti-VEGFR-2 followed by immunoblotting with anti-ubiquitin antibody. FIG. 6B. The graph is quantification of the ubiquitination blot of VEGFR-2. FIG. 6C. Angiogenic potential of wild-type and HA-tagged methionine mutant PDCL3 expressed in PAE cells is shown. PAE cells engineered to express VEGFR-2 alone, VEGFR-2 with wild-type PDCL3 or VEGFR-2 with HA-tagged methionine mutant PDCL3. Cells were plated on matrigel and pictures were taken after 12 hours. Image J was used to quantify tube formation. Graph is representative of three independent experiments.

[5] = test system: VEGFR-2; experiment: Protein aggregation assay (PSA dye), thermo-induced aggregation; assay type: biochemical; settings: immunoprecipitated VEGFR-2, 45° C.
Method: Aggregation of VEGFR-2 determined using PSA kit purchased from PROFOLDIN, Inc (Hudson, Mass.) and assay was performed according to manufacturer's guideline. […] When the PSA dye binds to the aggregate, it is immobilized and slows down the rotational movement and inducing the dye to fluoresce. In brief, VEGFR-2 immunoprecipitated from HEK-293 cells and eluded from the protein-sepharose beads. The eluded VEGFR-2 protein was incubated in the 45° C. in the presence or absence of purified GST-PDCL3 for various time points. The Fluorescence intensity was measured at […].

[6] = test system: VEGFR-1, VEGFR-2 and CSF-1R; experiment: Receptor expression in HEK-293 cells expressing PDCL3; assay type: cell-based
Method: FIG. 1A. HEK-293 cells expressing VEGFR-2 were transfected with different concentrations of C-terminus Myc-tagged PDCL3. After 48 hours cells were lysed and whole cell lysates (WCL) were blotted for VEGFR-2, PDCL3 and Hsp70 for loading control. Quantification of premature (newly synthesized and partially glycosylated VEGFR-2 corresponding to lower molecular weight) and mature (fully glycosylated) forms of VEGFR-2 is shown. Mean results of three independent experiments are shown. *P=0.04 and […]. FIG. 1B. Human umbilical vein endothelial cells (HUVECs) were transfected with control siRNA or PDCL3-siRNA. After 48 hours cells serum-starved for overnight followed by stimulation with VEGF for 10 minutes. Cells were lysed and whole cell lysates were blotted for phospho-Y1054-VEGFR-2, total VEGFR-2, PDCL3 and Hsp70 for loading control. FIG. 1C. Thermo-induced aggregation of VEGFR-2 was measured using PSA dye as described in the materials and method section. FIG. 1D. In vitro transcription/translation of VEGFR-2 in the absence or presence of exogenous recombinant PDCL3 was performed as described in the materials and method section and schematic of the procedure is shown. FIG. 1E. In vitro translated VEGFR-2 protein in the absence or presence of exogenous recombinant PDCL3 was blotted for VEGFR-2. FIG. 1F. […]

[7] = test system: VEGFR-2; experiment: Cycloheximide-chase / VEGF-induced downregulation of VEGFR-2; assay type: cell-based
Method: FIG. 2A. Illustrated is the schematic of treatment of cells with cycloheximide (CHX) and VEGF. PAE cells co-expressing VEGFR-2 with empty vector (pMSCV) or PDCL3 were incubated with CHX for 90 minutes followed by stimulation with VEGF for indicated times. Whole cell lysates was blotted for VEGFR-2 and loading control protein, PLCγ1. FIG. 2B. Shown are the quantification of the half-life of mature VEGFR-2 and pre-mature VEGFR-2 based on the VEGFR-2 blot from the panel FIG. 2A. FIGS. 2C-2D. PAE cells co-expressing VEGFR-2 with empty vector (pMSCV) or PDCL3 were stimulated with VEGF for indicated times and whole cell lysates were processed as panel FIG. 2A.
PAE cells expressing VEGFR-2 alone or together with PDCL3 were serum-starved for overnight followed by incubation of cells with serum-free DMEM medium containing cycloheximide (20 μg/ml, 90 min). Cells then were stimulated with VEGF for various times to downregulate cell surface VEGFR-2. Cells were lysed and whole cell lysates was blotted for VEGFR-2 using anti-VEGFR-2 antibody. For measuring half-life of PDCL3 and HA-tagged mutant PDCL3, cells were incubated with serum-free DMEM medium containing cycloheximide (20 μg/ml) for indicated times and cells were lysed and whole cell lysates was blotted for PDCL3.

[8] = test system: VEGFR-2; experiment: Co-immunoprecipitation with VEGFR-2 and VEGFR-2 ubiquitination blot; assay type: cell-based; settings: HEK-293 cells co-expressing VEGFR-2
Method: as §1
Plasmids and siRNA: Human Phosducin like protein 3 cDNA (PDCL3 also called PHLP2A) (Clone #3344703, accession #BC001021) was purchased from OPEN BIOSYSTEMS and was cloned into expression vectors, pcDNA3.1/Myc-His(−) or retroviral pMSCV. Mutant PDCL3 was generated by removing the first methionine and adding HA tag and similarly was cloned into pcDNA3.1 and pMSCV vectors. […]

## C[C@H]1CCC/C=C/[C@@H]2C[C@H](O)C[C@H]2[C@H](O)/C=C/C(=O)O1 [Brefeldin A]
[1]
  binding of PDCL3 with VEGFR-2: did not inhibit the binding of PDCL3 with VEGFR-2

## [Cl][Co][Cl] [cobalt chloride]
[2]
  expression of PDCL3 and VEGFR-2: similarly increased expression of PDCL3 and VEGFR-2

## pdcl3 morpholino: PDCL3 morpholino for zebrafish, 5′CGGTGTCTGCGTTTGGGTCCTGCAT3′ (SEQ ID NO: 10), Gene Tools (all phosphorodiamidate morpholino (PMO))
[3]
  angiogenesis (intersegmental vessel formation): significantly inhibited angiogenesis

B1: PDCL3: 239-amino acid human phosducin-like protein 3, SEQ ID NO: 1; expressed from cDNA in cells (protein, listed as Homo sapiens)
chain: MQDPNADTEWNDILRKKGILPPKESLKELEEEAEEEQRILQQSVVKTYEDMTLEELEDHEDEFNEEDERAIEMYRRRRLAEWKATKLKNKFGEVLEISGKDYVQEVTKAGEGLWVILHLYKQGIPLCALINQHLSGLARKFPDVKFIKAISTTCIPNYPDRNLPTIFVYLEGDIKAQFIGPLVFGGMNLTRDELEWKLSESGAIMTDLEENPKKPIEDVLLSSVRRSVLMKRDSDSEGD
modifications: Myc tag in some forms
notes: expressed from cDNA in cells
[4]
  angiogenesis/capillary tube formation: increased angiogenesis/capillary tube formation
[5]
  aggregation of VEGFR-2: significantly reduced aggregation of VEGFR-2 in a time-dependent manner
[6]
  expression of VEGFR-1, VEGFR-2 and CSF-1R: markedly increased expression of VEGFR-1, VEGFR-2 and CSF-1R
[6]; different concentrations of Myc-tagged PDCL3, 48 hours
  abundance of premature and mature forms of VEGFR-2: increases the abundance of premature and mature forms of VEGFR-2 in a dose-dependent manner
[7]; PAE cells co-expressing VEGFR-2 with PDCL3
  half-life of newly made VEGFR-2: extends the half-life of newly made VEGFR-2
[7]; PAE cells, absence of cycloheximide
  VEGF-induced downregulation of mature VEGFR-2: markedly slower

B2: acetylation resistant HA-tagged PDCL3: Mutant PDCL3 generated by removing the first methionine and adding HA tag (protein)
chain: QDPNADTEWNDILRKKGILPPKESLKELEEEAEEEQRILQQSVVKTYEDMTLEELEDHEDEFNEEDERAIEMYRRRRLAEWKATKLKNKFGEVLEISGKDYVQEVTKAGEGLWVILHLYKQGIPLCALINQHLSGLARKFPDVKFIKAISTTCIPNYPDRNLPTIFVYLEGDIKAQFIGPLVFGGMNLTRDELEWKLSESGAIMTDLEENPKKPIEDVLLSSVRRSVLMKRDSDSEGD
modifications: left off: small tags and cut ends
[8]
  interaction with VEGFR-2: interacted strongly with VEGFR-2 compared to wild-type PDCL3
  ubiquitination of VEGFR-2: prevented VEGFR-2 from ubiquitination
[4]
  angiogenesis/capillary tube formation: more robust
